Consider 1 protein from US7462701.

For this series, the target named is T1, Gly-Asp-Asp-Asp-Asp-Lys-β-naphthylamide.
T1 chain: GDDDDK

B1: CBM-enterokinase produced transiently in lettuce and purified on cellulose (protein)
chain: MVATAKYGTPVIDGEIDEIWNTTEEIETKAVAMGSLDKNATAKVRVLWDENYLYVLAIVKDPVLNKDNSNPWEQDSVEIFIDENNHKTGYYEDDDAQFRVNYMNEQTFGTGGSPARFKTAVKLIEGGYIVEAAIKWKTIKPTPNTVIGFNIQVNDANEKGQRVGIISWSDPTNNSWRDPSKFGNLRLIK
As to B1, the “Enterokinase activity (rate of β-naphthylamine formation)” value is listed as “Enterokinase activity was measured to be 442.7 cps/min/µg compared to blank 0.0001 cps/min/µg”.
